Drawing on publication doi:10.1101/2023.02.16.528799, this text covers fold enhancement of binding over A6-TCR for one substance.

In the assay the target is TAX peptide, Human T-cell leukemia virus type I peptide on HLA-A2 (human). As to the kind of experiment: data from Cole et al., 2013.

Consider “A6-TCR after mutation of the CDR3 beta loop (PDBID 4FTV)”, for which the fold enhancement of binding over A6-TCR came to 1000 fold.
